Experimental data as given in the Human Domainome abundance scans (Beltran et al. 2025).
± gives the uncertainty stated by the source.

B1: POU domain, class 5, transcription factor 1, residues 134 to 212; numbered along this chain, Q01860 (parent)
chain: EESQDIKALQKELEQFAKLLKQKRITLGYTQADVGLTLGVLFGKVFSQTTICRFEALQLSFKNMCKLRPLLQKWVEEAD

Variants of: B1
Test: abundance fitness (aPCA) (normalised: wild type 0, dead -1); higher = more abundant; growth selection in yeast, the domain comes from the species named
Conditions: Homo sapiens

A32R and A32T are within error of each other in abundance fitness: 0.066 ± 0.1 for the first, -0.06 ± 0.21 for the second.

A32G and L20S are within error of each other in abundance fitness: -0.235 ± 0.1 for the first, -0.399 ± 0.25 for the second.

Compared with L20P, L20G is lower in abundance fitness: -0.303 ± 0.24 for the first, -0.801 ± 0.23 for the second.

Going from N63D to N63W, the abundance fitness falls from -0.093 ± 0.24 to -0.832 ± 0.39.

First: N63T
Second: N63K
The abundance fitness of the first is lower: -0.303 ± 0.22 for the first, 0.172 ± 0.23 for the second.

N63Q and N63V are within error of each other in abundance fitness: -0.236 ± 0.24 for the first, -0.305 ± 0.13 for the second.

N63H and N63F are within error of each other in abundance fitness: -0.183 ± 0.31 for the first, -0.2 ± 0.43 for the second.

E55K and Q48D are within error of each other in abundance fitness: -0.495 ± 0.26 for the first, 0.164 ± 0.44 for the second.

Compared with Q48S, K7W is lower in abundance fitness: 0.208 ± 0.17 for the first, -0.173 ± 0.074 for the second.

K7G and K7P are within error of each other in abundance fitness: -0.193 ± 0.055 for the first, -0.124 ± 0.099 for the second.

K7S and K7A are within error of each other in abundance fitness: -0.05 ± 0.063 for the first, -0.007 ± 0.062 for the second.

First: K7I
Second: K7E
The abundance fitness of the first is lower: -0.391 ± 0.22 for the first, -0.025 ± 0.075 for the second.

C65M and C65R are within error of each other in abundance fitness: -0.04 ± 0.14 for the first, -0.18 ± 0.073 for the second.

First: C65N
Second: C65L
The abundance fitness of the first is lower: -0.343 ± 0.29 for the first, 0.14 ± 0.077 for the second.

Compared with C65I, C65A is lower in abundance fitness: 0.246 ± 0.2 for the first, -0.381 ± 0.13 for the second.

First: C65S
Second: L19C
The abundance fitness of the first is lower: -0.393 ± 0.15 for the first, 0.164 ± 0.22 for the second.

First: L19K
Second: V40G
The abundance fitness of the first is higher: 0.373 ± 0.26 for the first, -0.01 ± 0.076 for the second.

V40E and V40N are within error of each other in abundance fitness: 0.1 ± 0.13 for the first, 0.028 ± 0.28 for the second.

Compared with V40H, M64C is lower in abundance fitness: 0.12 ± 0.28 for the first, -0.739 ± 0.33 for the second.

M64N and M64K are within error of each other in abundance fitness: -0.608 ± 0.23 for the first, -0.279 ± 0.13 for the second.

Going from R68G to R68Q, the abundance fitness rises from -0.797 ± 0.23 to -0.384 ± 0.16.

Compared with R68K, R68P is lower in abundance fitness: -0.154 ± 0.2 for the first, -0.734 ± 0.33 for the second.

Q10G and Q10A are within error of each other in abundance fitness: -0.239 ± 0.082 for the first, -0.169 ± 0.12 for the second.

Compared with Q10W, Q10T is lower in abundance fitness: 0.305 ± 0.084 for the first, -0.184 ± 0.18 for the second.

Going from Q10L to S3G, the abundance fitness rises from -0.214 ± 0.11 to 0.131 ± 0.17.

S3V and L36C are within error of each other in abundance fitness: 0.323 ± 0.24 for the first, 0.111 ± 0.16 for the second.

L36M and L36T are within error of each other in abundance fitness: 0.168 ± 0.15 for the first, 0.293 ± 0.096 for the second.

L36R and L36F are within error of each other in abundance fitness: 0.235 ± 0.059 for the first, 0.013 ± 0.26 for the second.

L36H and L36E are within error of each other in abundance fitness: 0.362 ± 0.15 for the first, 0.155 ± 0.094 for the second.

V45W and V45N are within error of each other in abundance fitness: -0.143 ± 0.058 for the first, 0.001 ± 0.25 for the second.

V45F and V45T are within error of each other in abundance fitness: -0.15 ± 0.17 for the first, -0.005 ± 0.11 for the second.

V45K and V45C are within error of each other in abundance fitness: 0.085 ± 0.1 for the first, -0.101 ± 0.093 for the second.

V45P and V45A are within error of each other in abundance fitness: 0.12 ± 0.077 for the first, 0.127 ± 0.049 for the second.

V45R and L13F are within error of each other in abundance fitness: 0.036 ± 0.049 for the first, -0.149 ± 0.14 for the second.

L13S and L13W are within error of each other in abundance fitness: -0.743 ± 0.25 for the first, -0.58 ± 0.19 for the second.

L13V and L13P are within error of each other in abundance fitness: -0.228 ± 0.14 for the first, -0.306 ± 0.45 for the second.

Q72A and Q72I are within error of each other in abundance fitness: -0.354 ± 0.13 for the first, -0.119 ± 0.3 for the second.

Q72G and Q72V are within error of each other in abundance fitness: -0.302 ± 0.11 for the first, -0.337 ± 0.13 for the second.

First: Q72S
Second: T26A
The abundance fitness of the first is lower: -0.371 ± 0.15 for the first, 0.202 ± 0.15 for the second.

T26R and T26I are within error of each other in abundance fitness: 0.129 ± 0.14 for the first, -0.313 ± 0.48 for the second.

Compared with L41V, L41W is higher in abundance fitness: -0.329 ± 0.17 for the first, 0.046 ± 0.14 for the second.

With L41Q the abundance fitness was 0.048 ± 0.29.
